Columns and labels:
[1] = molecular target: GLP-2 receptor; assay: cell-based or functional assay
[2] = test system: normal mice (strain FVB/nj); assay: Linear growth of normal mice, daily injection for three weeks; format: in vivo; conditions: injected daily for three weeks, mice 3 weeks of age, vs saline; FIG. 3A-C
Procedure: Effect on growth was determined by measuring nose to tail length (A), nose to anus length (B), and tail length (C). The graphs show the mean change in growth versus baseline over the 3 week period.
The above constructs were injected daily in normal mice (strain FVB/nj) for three weeks. The mice were 3 weeks of age at the start of the experiment. The effect on linear growth of the mice was determined by measuring tail length, nose to anal length and nose to tail length after each week of dosing in comparison to a control group injected with normal saline. […] There was no significant effect on body weight.

[3] = test system: Male Sprague Dawley rats; assay: Small intestine weight and histology after eleven-day subcutaneous dosing in rats; format: in vivo
Procedure: Dosing was as follows: Vehicle group dosed with saline daily; PE0503 Q1D dosed with PE0503 at 1.3 mg/kg once per day; PE0503 Q2D dosed with PE0503 at 5.1 mg/kg every other day; PE0503 Q4D dosed with PE0503 at 20.5 mg/kg once every four days; GLP-2(A2G) TID dosed […] with 0.1 mg/kg GLP2(A2G).
Male Sprague Dawley rats (200-220 g, n=12/group) were injected subcutaneously with PE0503 or GLP-2 (A2G) peptide over an eleven-day dosing period as shown in Table 5.
The animals were sacrificed on day 12 and a mid-line incision was made, the small intestines were removed, stretched to their maximum length and measured. The fecal material was then flushed from the lumen and the small intestine weight was recorded.

[4] = molecular target: T1, GLP-2 receptor (Homo sapiens, UniProt O95838); assay: Cell-based cAMP potency assay; conditions: read-out: ECso
T1 sequence (O95838 1-553): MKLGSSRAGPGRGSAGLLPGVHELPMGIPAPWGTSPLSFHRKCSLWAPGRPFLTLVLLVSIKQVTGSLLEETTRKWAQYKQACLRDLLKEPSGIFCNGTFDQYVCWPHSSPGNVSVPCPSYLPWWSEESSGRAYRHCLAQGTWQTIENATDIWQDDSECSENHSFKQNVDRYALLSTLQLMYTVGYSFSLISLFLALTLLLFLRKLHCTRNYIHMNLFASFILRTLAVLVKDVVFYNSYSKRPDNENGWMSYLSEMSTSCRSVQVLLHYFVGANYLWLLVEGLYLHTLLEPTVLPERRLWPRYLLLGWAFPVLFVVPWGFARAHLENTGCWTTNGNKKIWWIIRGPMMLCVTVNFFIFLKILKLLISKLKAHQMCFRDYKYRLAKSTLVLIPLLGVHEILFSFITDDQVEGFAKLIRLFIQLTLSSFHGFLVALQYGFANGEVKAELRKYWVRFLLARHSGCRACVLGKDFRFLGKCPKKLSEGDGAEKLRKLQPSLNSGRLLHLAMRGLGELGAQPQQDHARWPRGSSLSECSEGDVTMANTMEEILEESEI

HGDGSFSDEMNTILDNLAARDFINWLIQTKITD (ligand, part only; not given: ELP carrier, part only) [PE0503]
EC50, cell-based cAMP potency assay [1]: 1.75 nM

B1: PE9306: CNP37 on N-terminus of ELP1-120 with Cathepsin K site 1 (Arg-Lys-Pro-Arg/Gly); SEQ ID NOs: 125 & 126 (protein)
chain: QEHPNARKYKGANKKGLSKGCFGLKLDRIGSMSGLGCRKPRGVPGVGVPGVGVPGGGVPGAGVPGVGVPGVGVPGVGVPGGGVPGAGVPGGGVPGVGVPGVGVPGGGVPGAGVPGVGVPGVGVPGVGVPGGGVPGAGVPGGGVPGVGVPGVGVPGGGVPGAGVPGVGVPGVGVPGVGVPGGGVPGAGVPGGGVPGVGVPGVGVPGGGVPGAGVPGVGVPGVGVPGVGVPGGGVPGAGVPGGGVPGVGVPGVGVPGGGVPGAGVPGVGVPGVGVPGVGVPGGGVPGAGVPGGGVPGVGVPGVGVPGGGVPGAGVPGVGVPGVGVPGVGVPGGGVPGAGVPGGGVPGVGVPGVGVPGGGVPGAGVPGVGVPGVGVPGVGVPGGGVPGAGVPGGGVPGVGVPGVGVPGGGVPGAGVPGVGVPGVGVPGVGVPGGGVPGAGVPGGGVPGVGVPGVGVPGGGVPGAGVPGVGVPGVGVPGVGVPGGGVPGAGVPGGGVPGVGVPGVGVPGGGVPGAGVPGVGVPGVGVPGVGVPGGGVPGAGVPGGGVPGVGVPGVGVPGGGVPGAGVPGVGVPGVGVPGVGVPGGGVPGAGVPGGGVPGVGVPGVGVPGGGVPGAGVPGVGVPGVGVPGVGVPGGGVPGAGVPGGGVPGWP
modifications: CNP37 CatK ELP1-120 fusion PE9306
rate of linear growth (tail length, nose to anal length, nose to tail length) [2]: faster rate of linear growth

B2: PE0503: GLP-2 sequence with A2G mutation on the N-terminus of the ELP1-120 sequence (protein)
chain: HGDGSFSDEMNTILDNLAARDFINWLIQTKITDVPGVGVPGVGVPGGGVPGAGVPGVGVPGVGVPGVGVPGGGVPGAGVPGGGVPGVGVPGVGVPGGGVPGAGVPGVGVPGVGVPGVGVPGGGVPGAGVPGGGVPGVGVPGVGVPGGGVPGAGVPGVGVPGVGVPGVGVPGGGVPGAGVPGGGVPGVGVPGVGVPGGGVPGAGVPGVGVPGVGVPGVGVPGGGVPGAGVPGGGVPGVGVPGVGVPGGGVPGAGVPGVGVPGVGVPGVGVPGGGVPGAGVPGGGVPGVGVPGVGVPGGGVPGAGVPGVGVPGVGVPGVGVPGGGVPGAGVPGGGVPGVGVPGVGVPGGGVPGAGVPGVGVPGVGVPGVGVPGGGVPGAGVPGGGVPGVGVPGVGVPGGGVPGAGVPGVGVPGVGVPGVGVPGGGVPGAGVPGGGVPGVGVPGVGVPGGGVPGAGVPGVGVPGVGVPGVGVPGGGVPGAGVPGGGVPGVGVPGVGVPGGGVPGAGVPGVGVPGVGVPGVGVPGGGVPGAGVPGGGVPGVGVPGVGVPGGGVPGAGVPGVGVPGVGVPGVGVPGGGVPGAGVPGGGVPGVGVPGVGVPGGGVPGAGVPGVGVPGVGVPGVGVPGGGVPGAGVPGGGVPGWP
modifications: pPE0503-GLP-2(A2G)-ELP1-120
small intestine weight ([3]; compared to placebo, day 12, even when dosed every fourth day (Q4D), FIG. 4): highly significant increase | villus height (histological analysis of sections of the small intestine) ([3]; compared to vehicle (saline)): clear increase | EC50 [4]: 1.75 nM
